{
  "source": "patent US20140057311A1",
  "about": "“Device For High Throughput Investigations Of Multi-Cellular Interactions” (priority 2010, published 2014)",
  "key": {"[1]": {"test_system": "Human Lung Cancer Cell Line A549 aggregates", "experiment": "A549 cancer aggregate break-up/migration in collagen gel with HUVEC monolayer, high throughput microfluidic device", "type": "cell-based", "method": "Red colure cells are from Human Lung Cancer Cell Line A549 were transfected with H2B protein (m-Cherry), and partially disassociated, yielding cell aggregates of random sizes, between 40 um and 70 um. This was aspirated through a 100 micrometer strainer, yielding a media with cell aggregates with radii under 100 micrometers. This was poured through a second 40-micrometer filter, yielding a media with A549 aggregates between 40 and 100 micrometers. The cells were then centrifuged at 800 rpm for 2 minutes, and the media aspirated.\nCollagen gel was prepared by adding 9 microliters of 1 M NaOH to 20 microliters of Phosphate Buffered Solution (BD Bioscience), and then adding 46 microliters of ultrapure H2O. Finally, 125 microliters of Type I Rat Tail Collagen at 2.5 mg/mL (BD Biosciences) were added, and mixed thoroughly.\nThe A549 aggregates were then mixed with the collagen gel, yielding a mixture of aggregates within the gel. Ten microliters of the gel were then injected into the center channel of the device shown in FIGS. 1 and 2, yielding 36 distinct gel-fluid interfaces within the device.\nHuman Umbilical Vein Endothelial Cells were transfected by GFP protein label disassociated, and flowed into the first media channel. Media without cells was added to the second channel. Adding a small bubble of media on each port of the first media channel yielded a hydrostatic pressure gradient, pushing cells to the gel-media interfaces. The pressure gradient was maintained for one hour, before the bubbles were removed. The device was cultured, and imaged at 0, 12, 36, 60, 84, and 108 hours. The endothelial cells were seen to create an endothelial monolayer along the bottom of the media channel, as well as on the gel-media interface.\nIn the control group, no drugs were added to the system. In the experimental group, the commercial cancer anti-metastatic drug Iressa (AstraZeneca), an EGFR-TK enzyme blocker, was added to the endothelial cell medium in doses of 100 nM, 500 nM, 1000 nM, 1500 nM, and 2000 nM. […]"}, "[2]": {"test_system": "dorsal root ganglion (DRG) neurons", "experiment": "DRG axonal outgrowth and turning under slit-2 gradient after 5-FU treatment", "type": "cell-based, mice", "method": "(§1) Primary hippocampal neurons and dorsal root ganglion (DRG) neurons cultured in the devices were obtained from embryonic day 14.5-16.5 mice as per protocols described in detail elsewhere (R. Li, Methods. Cell. Biol., 1998, 57, 167; W. E. Thomas, Life. Sci., 1986, 38, 297; A. V. Kwiatkowski, et al., Neuron, 2007, 56, 441). Cells from micro-dissected cortices were dissociated and resuspended in serum-free media at a final concentration of 10 million cells/mL. The neurons were seeded into the devices (n=10 devices per test condition) immediately after dissociation and cultured for 1-2 days, with serum-free media replaced in all the channels twice a day, before any guidance cue was introduced. All cell cultures were maintained in a humidified incubator at 5% CO2 and 37° C. For netrin-1 studies (FIGS. 11A-11C), hippocampal neurons were transfected using amaxa nucleofection, with a pmax-gfp plasmid cotransfected with a plasmid expressing DCC (deleted in colorectal cancer) receptor (M. J. Galko and M. Tessier-Lavigne, Science, 2000, 289, 1365).\n(§2) Netrin-1 added in the channel was obtained from multiple sources: lab-isolated (T. Serafini, et al., Cell, 1994, 78, 409) netrin-1 (0.1-10 μg/mL), and netrin-1 released from cDNA transfected stable fibroblast cell line (K. Löw, et al., J. Neurosci., 2008, 28, 1099). […] Brain pulp was prepared in the lab from fresh whole mouse brain tissues. Briefly, the brain tissue was homogenized with a rotor stator in a hypotonic solution supplemented with protease inhibitors (protease inhibitor cocktail; Roche, USA), filtered, total protein content measured using a Bradford protein assay, and diluted to […] concentration. […]\n(§3) Phase-contrast, fluorescence and confocal microscopy were used to characterize axonal distribution and quantify axonal turning in 3D collagen gels within the devices. […] The last 100 μm segment along the length of each axon leading to the growth cone was traced with NeuronJ (E. Meijering, et al., Cytometry. Part. A, 2004, 58, 167), and the angle this segment makes with the horizontal line (0°) was measured. […]"}, "hippocampal neurons": {"test_system": "hippocampal neurons", "experiment": "Hippocampal axonal turning under guidance cue gradient in 3D collagen gel, spider microfluidic device", "type": "cell-based, mice", "method": "as §1\nNetrin-1 added in the channel was obtained from multiple sources: lab-isolated (T. Serafini, et al., Cell, 1994, 78, 409) netrin-1 (0.1-10 μg/mL), and netrin-1 released from cDNA transfected stable fibroblast cell line (K. Löw, et al., J. Neurosci., 2008, 28, 1099). […] Brain pulp was prepared in the lab from fresh whole mouse brain tissues. Briefly, the brain tissue was homogenized with a rotor stator in a hypotonic solution supplemented with protease inhibitors (protease inhibitor cocktail; Roche, USA), filtered, total protein content measured using a Bradford protein assay, and diluted to […] concentration. The chemorepellant used was Slit-2 (62.5 or 250 ng/mL; R&D Systems, Minneapolis, Minn.)). For chemosensing studies, the medium was removed from all the ports after 24-48 h of cell seeding, and 350 μL medium containing known concentration of guidance cue was introduced in the chemoattractant channel, and 350 μL serum-free media in each of the remaining two channels. For the experiments with netrin-1 being released from fibroblasts, transfected fibroblasts (1×10^5 cells) were seeded in the chemoattractant channel (source), and normal fibroblasts (non-transfected, 1×10^5 cells) were seeded in the left channel (sink). […] Netrin-1 released from the transfected fibroblasts diffuses across the collagen-1 gel and creates a gradient. The medium was changed at regular intervals to maintain chemogradient at all times. The control devices which received no guidance cues were cultured in the same procedure as with test cases.\nas §3, with “devices. Florescent and phase contrast images were acquired with a Nikon TE300 microscope equipped with a Hamamatsu camera and Openlab image acquisition software. Axonal and nuclei staining were performed after fixation with 4% PFA (30 min).” for “devices.”"}, "[3]": {"test_system": "dorsal root ganglion (DRG) neurons", "experiment": "DRG neuron migration into 3D collagen scaffold under slit-2 gradient", "type": "cell-based, mice", "conditions": "slit-2 250 ng/mL", "method": "as §1, §2, §3"}, "[4]": {"conditions": "slit-2 250 ng/mL in the right channel, n=64 axons"}},
  "data": [
    {"molecule": "COc1cc2ncnc(Nc3ccc(F)c(Cl)c3)c2cc1OCCCN1CCOCC1", "note": "[Iressa]", "values": [
      {"measurement": "behaviour of A549 cancer aggregates", "setting": "[1]; 100 nM and 500 nM drug concentrations", "result": "cancer aggregates were seen to break up"},
      {"measurement": "behaviour of A549 cancer aggregates", "setting": "[1]; 1000 nM, 1500 nM and 2000 nM drug concentrations", "result": "the cancer aggregates stayed intact"},
      {"measurement": "minimum effective dose", "setting": "[1]; drug in endothelial cell medium, keeps A549 aggregates intact", "result": 1000, "unit": "nM"}
    ]},
    {"molecule": "O=c1[nH]cc(F)c(=O)[nH]1", "note": "[5-FU, 5-fluorourasil, reference compound]", "values": [
      {"measurement": "DRG cell migration into the scaffold", "setting": "[2]; 5-FU 10^−5 M seeded with DRG explants on day 0, 24 h culture", "result": "no cell migration into the scaffold was observed"}
    ]},
    {"molecule": "slit-2: chemorepellant guidance cue Slit-2 (R&D Systems) (protein, UniProt O94813 31-1529, looked up) Slit homolog 2 protein: QCSCSGSTVDCHGLALRSVPRNIPRNTERLDLNGNNITRITKTDFAGLRHLRVLQLMENKISTIERGAFQDLKELERLRLNRNHLQLFPELLFLGTAKLYRLDLSENQIQAIPRKAFRGAVDIKNLQLDYNQISCIEDGAFRALRDLEVLTLNNNNITRLSVASFNHMPKLRTFRLHSNNLYCDCHLAWLSDWLRQRPRVGLYTQCMGPSHLRGHNVAEVQKREFVCSGHQSFMAPSCSVLHCPAACTCSNNIVDCRGKGLTEIPTNLPETITEIRLEQNTIKVIPPGAFSPYKKLRRIDLSNNQISELAPDAFQGLRSLNSLVLYGNKITELPKSLFEGLFSLQLLLLNANKINCLRVDAFQDLHNLNLLSLYDNKLQTIAKGTFSPLRAIQTMHLAQNPFICDCHLKWLADYLHTNPIETSGARCTSPRRLANKRIGQIKSKKFRCSAKEQYFIPGTEDYRSKLSGDCFADLACPEKCRCEGTTVDCSNQKLNKIPEHIPQYTAELRLNNNEFTVLEATGIFKKLPQLRKINFSNNKITDIEEGAFEGASGVNEILLTSNRLENVQHKMFKGLESLKTLMLRSNRITCVGNDSFIGLSSVRLLSLYDNQITTVAPGAFDTLHSLSTLNLLANPFNCNCYLAWLGEWLRKKRIVTGNPRCQKPYFLKEIPIQDVAIQDFTCDDGNDDNSCSPLSRCPTECTCLDTVVRCSNKGLKVLPKGIPRDVTELYLDGNQFTLVPKELSNYKHLTLIDLSNNRISTLSNQSFSNMTQLLTLILSYNRLRCIPPRTFDGLKSLRLLSLHGNDISVVPEGAFNDLSALSHLAIGANPLYCDCNMQWLSDWVKSEYKEPGIARCAGPGEMADKLLLTTPSKKFTCQGPVDVNILAKCNPCLSNPCKNDGTCNSDPVDFYRCTCPYGFKGQDCDVPIHACISNPCKHGGTCHLKEGEEDGFWCICADGFEGENCEVNVDDCEDNDCENNSTCVDGINNYTCLCPPEYTGELCEEKLDFCAQDLNPCQHDSKCILTPKGFKCDCTPGYVGEHCDIDFDDCQDNKCKNGAHCTDAVNGYTCICPEGYSGLFCEFSPPMVLPRTSPCDNFDCQNGAQCIVRINEPICQCLPGYQGEKCEKLVSVNFINKESYLQIPSAKVRPQTNITLQIATDEDSGILLYKGDKDHIAVELYRGRVRASYDTGSHPASAIYSVETINDGNFHIVELLALDQSLSLSVDGGNPKIITNLSKQSTLNFDSPLYVGGMPGKSNVASLRQAPGQNGTSFHGCIRNLYINSELQDFQKVPMQTGILPGCEPCHKKVCAHGTCQPSSQAGFTCECQEGWMGPLCDQRTNDPCLGNKCVHGTCLPINAFSYSCKCLEGHGGVLCDEEEDLFNPCQAIKCKHGKCRLSGLGQPYCECSSGYTGDSCDREISCRGERIRDYYQKQQGYAACQTTKKVSRLECRGGCAGGQCCGPLRSKRRKYSFECTDGSSFVDEVEKVVKCGCTRCVS", "values": [
      {"measurement": "percentage of axons that turned away from the high concentration, 250 ng/mL versus 62.5 ng/mL", "setting": "hippocampal neurons; increasing slit-2 from 62.5 ng/mL to 250 ng/mL, p<0.001", "result": "tripled"},
      {"measurement": "chemorepellent effect on hippocampal axonal turning", "setting": "hippocampal neurons; slit-2 62.5 ng/mL, n=51 axons", "result": "did not exhibit similar strong repellent characteristics"},
      {"measurement": "percentage of axons in Q1 (towards guidance cue)", "setting": "hippocampal neurons; [4]", "result": "18.2±4.5", "unit": "%"},
      {"measurement": "percentage of axons in Q3 (away from guidance cue)", "setting": "hippocampal neurons; [4]", "result": "42.6±9.1", "unit": "%"},
      {"measurement": "enhancement of axonal turning down the gradient relative to controls which received no cues", "setting": "hippocampal neurons; slit-2 250 ng/mL, p<0.001", "result": 3.4, "unit": "fold"},
      {"measurement": "DRG neuron migration down the gradient, percentage in Q3", "setting": "[3]", "result": "74±12.5", "unit": "%"},
      {"measurement": "increase in DRG neuron migration down the gradient relative to controls", "setting": "[3]; p<0.001 vs. controls", "result": 5, "unit": "fold"},
      {"measurement": "increase in DRG neuron migration down the gradient relative to 62.5 ng/mL slit-2 gradient", "setting": "[3]; p<0.01", "result": 2.7, "unit": "fold"},
      {"measurement": "percentage of DRG axons repelled", "setting": "[2]; slit-2 250 ng/mL in right hand channel after 24 h 5-FU, p<0.03 vs. controls", "result": "70±14.2", "unit": "%"},
      {"measurement": "inhibition of DRG neuron axonal turning into Q1 relative to control cultures", "setting": "[2]; slit-2 250 ng/mL, p<0.05 vs. controls", "result": 56, "unit": "%"}
    ]}
  ]
}
